From patent US20220363731A1 (LETO LABORATORIES, published 2022)
One block for each binder: values may come before it.

Columns and labels:
IL2Rβγ-Fc [1] = target: T1, IL2Rβγ-Fc (UniProt P14784 27-240; P31785 23-262, limits assumed); assay: BLI (Fortebio Octet RED96), IL2Rβγ-Fc loaded on ProA sensor, analyte 2.5-40 nM as labelled; R2 0.998
T1 construct: From Beijing Zhidao Biotechnology, loaded on ProA sensors; also called IL2Rβγ receptors; complex of β and γ receptor subunits; not shown: Fc
T1 sequence (looked up) 1: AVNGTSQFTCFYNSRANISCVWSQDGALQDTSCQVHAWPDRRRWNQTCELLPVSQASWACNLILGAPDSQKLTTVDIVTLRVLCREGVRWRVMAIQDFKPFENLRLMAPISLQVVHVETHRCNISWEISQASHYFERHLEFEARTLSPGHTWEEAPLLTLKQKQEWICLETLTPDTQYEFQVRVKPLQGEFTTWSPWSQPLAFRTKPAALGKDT
T1 sequence (looked up) 2: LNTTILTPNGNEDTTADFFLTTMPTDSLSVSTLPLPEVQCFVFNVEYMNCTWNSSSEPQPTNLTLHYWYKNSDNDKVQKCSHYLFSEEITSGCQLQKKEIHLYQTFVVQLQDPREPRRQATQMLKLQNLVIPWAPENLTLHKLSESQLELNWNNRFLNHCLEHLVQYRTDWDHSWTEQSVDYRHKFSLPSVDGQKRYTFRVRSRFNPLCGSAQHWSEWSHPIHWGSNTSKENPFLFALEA
Description: (§1) The buffer formulation was as follows: 10 mM HEPES, 150 mM sodium chloride, 3 mM EDTA, 0.1% BSA and 0.05% Tween 20. The ProA sensor was purchased from Pall Fortebio (Cat. No. #18-5010). The HISIK sensor was purchased from Pall Fortebio (Cat. No. #18-5120). The BLI equipment was Octet RED96 from Pall Fortebio. Data acquisition and analysis were carried out using software Data acquisition 11.0 and Data Analysis 11.0, respectively.
(§2) IL2Rβγ-Fc was diluted with the buffer solution to a concentration of 10 μg/mL, and then added to column 2 of the 96-well assay plate. The program was set to Loading, 600 s.
(§3) 8 ProA sensors were respectively placed in A-H of column 1 of the sensor holder. In the software Data acquisition 11.0, the detection conditions were set as follows. 1 Pre-wetting: Baseline, 60 s, Position: Column 1. 2 Cycle detection: column 2: loading, 600 s; column 4: Baseline 1, 60 s; columns 5-9: Association, 200 s; column 10: Dissociation, 600 s; column 11: neutralization; and column 12: regeneration.

IL2Rβγ-Fc [2] = target: T1, IL2Rβγ-Fc; assay: BLI (Fortebio Octet RED96), IL2Rβγ-Fc loaded on ProA sensor, analyte 1.25-40 nM; R2 0.9953
Description: as §2
(§4) They were added to columns 5-9 of the 96-well assay plate, respectively. The program was set to Association, 200 s. The buffers were added to columns 1, 4, 10 and 11 of the 96-well assay plate, and the glycine with pH 1.7 was added to column 12. The loading volume of the above samples or solutions was 200 μL.
as §3

IL2Rα-his = target: T2, IL2Rα-his (UniProt P01589 22-217, limits assumed); assay: BLI (Fortebio Octet RED96), IL2Rα-his loaded on HIS1K sensor, analyte at 100 nM
T2 construct: From Beijing Zhidao Biotechnology, loaded on HIS1K sensors; also called IL2Rα receptor; α receptor subunit; not shown: his tag
T2 sequence (looked up): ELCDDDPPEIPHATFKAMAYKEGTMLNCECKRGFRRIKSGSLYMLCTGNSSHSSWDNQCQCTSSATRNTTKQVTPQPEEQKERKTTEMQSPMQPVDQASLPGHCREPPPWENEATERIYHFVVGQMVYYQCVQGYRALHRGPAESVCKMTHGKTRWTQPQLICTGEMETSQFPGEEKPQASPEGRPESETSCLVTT
Description: as §1
IL2Rα-his was diluted with the buffer solution to a concentration of 10 μg/mL, and then added to column 3 of the 96-well assay plate. The program was set to Loading, 600 s.

IL2Rβγ-Fc [3] = target: T1, IL2Rβγ-Fc; assay: BLI (Fortebio Octet RED96), IL2Rβγ-Fc loaded on ProA sensor, analyte 1.25-40 nM; R2 0.9972
Description: as §2, §4, §3

IL2Rβγ-Fc [4] = target: T1, IL2Rβγ-Fc; assay: BLI (Fortebio Octet RED96), IL2Rβγ-Fc loaded on ProA sensor, analyte 2.5-40 nM as labelled; R2 0.9984
Description: as §1, §2, §3

B1: IL-2 Mutant 1, IL-2 (M39C, V69C, C125A) (ligand)
chain: APTSSSTKKTQLQLEHLLLDLQMILNGINNYKNPKLTRCLTFKFYMPKKATELKHLQCLEEELKPLEECLNLAQSKNFHLRPRDLISNINVIVLELKGSETTFMCEYADETATIVEFLNRWITFAQSIISTLT
notes: Designed to form an intramolecular disulfide bond between Cys39 and Cys69; not shown: HPC4 tag at the C-terminus
- Kd (IL2Rβγ-Fc [1]): 0.56 nM

B2: IL-2 Mutant 2, IL-2 (F44C, E62C, C125A) (ligand)
chain: APTSSSTKKTQLQLEHLLLDLQMILNGINNYKNPKLTRMLTFKCYMPKKATELKHLQCLEECLKPLEEVLNLAQSKNFHLRPRDLISNINVIVLELKGSETTFMCEYADETATIVEFLNRWITFAQSIISTLT
notes: Designed to form an intramolecular disulfide bond between Cys44 and Cys62; not shown: HPC4 tag at the C-terminus
- Kd (IL2Rβγ-Fc [2]): 0.675 nM
- binding result (IL2Rα-his): no binding (tested: 100 nM)

Second part, the binder after the results:

- Kd (IL2Rβγ-Fc [3]): 0.268 nM
- binding result (IL2Rα-his): no binding (tested: 100 nM)
B3: IL-2 Mutant 4, IL-2 (F42C, V69C, C125A) (ligand)
chain: APTSSSTKKTQLQLEHLLLDLQMILNGINNYKNPKLTRMLTCKFYMPKKATELKHLQCLEEELKPLEECLNLAQSKNFHLRPRDLISNINVIVLELKGSETTFMCEYADETATIVEFLNRWITFAQSIISTLT
notes: Designed to form an intramolecular disulfide bond between Cys42 and Cys69; not shown: HPC4 tag at the C-terminus

- Kd (IL2Rβγ-Fc [4]): 0.66 nM
B4: IL-2 Mutant 3, IL-2 (F44C, P65C, C125A) (ligand)
chain: APTSSSTKKTQLQLEHLLLDLQMILNGINNYKNPKLTRMLTFKCYMPKKATELKHLQCLEEELKCLEEVLNLAQSKNFHLRPRDLISNINVIVLELKGSETTFMCEYADETATIVEFLNRWITFAQSIISTLT
notes: Designed to form an intramolecular disulfide bond between Cys44 and Cys65; not shown: HPC4 tag at the C-terminus
